Experimental data reported in patent publication US20160272683A1 (Novo Nordisk, published 2016).
Numbered stars: 1 amine (or outer) side, 2 acyl side, 3 side chain; on linkers, the order of the positions; unused ones are H or OH. * marks the point of attachment. C20 diacid = O=C(O)CCCCCCCCCCCCCCCCCCC(=O)*; C18 diacid = O=C(O)CCCCCCCCCCCCCCCCC(=O)*; γGlu = O=C(O)[C@H](CCC(=O)[*:2])N[*:1]

T1: human calcitonin receptor (human, UniProt P30988 25-474)
T1 sequence (looked up): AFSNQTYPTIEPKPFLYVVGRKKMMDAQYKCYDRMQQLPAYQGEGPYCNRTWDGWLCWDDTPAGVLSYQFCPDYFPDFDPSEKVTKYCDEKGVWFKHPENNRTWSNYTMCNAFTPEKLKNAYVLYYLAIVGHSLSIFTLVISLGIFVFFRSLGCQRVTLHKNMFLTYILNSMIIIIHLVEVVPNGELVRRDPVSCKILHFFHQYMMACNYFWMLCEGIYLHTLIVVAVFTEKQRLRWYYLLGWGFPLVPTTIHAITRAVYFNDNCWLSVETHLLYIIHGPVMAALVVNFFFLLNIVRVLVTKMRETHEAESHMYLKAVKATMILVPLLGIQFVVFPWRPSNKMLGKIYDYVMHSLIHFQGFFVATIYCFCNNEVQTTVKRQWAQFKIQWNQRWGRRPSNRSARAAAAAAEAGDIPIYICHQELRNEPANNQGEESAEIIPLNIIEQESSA

T2: human amylin 3(a) receptor (human calcitonin receptor co-expressed with RAMP-3) (human, UniProt P30988 25-474; O60896 24-148, limits assumed)
T2 sequence (looked up) 1: T1 sequence (looked up)
T2 sequence (looked up) 2: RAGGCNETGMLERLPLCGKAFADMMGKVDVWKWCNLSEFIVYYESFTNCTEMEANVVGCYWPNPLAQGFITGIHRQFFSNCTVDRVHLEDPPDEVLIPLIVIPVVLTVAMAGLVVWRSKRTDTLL

B1: [N-terminal(C20 diacid-gGlu), des1, 23Y, 30S, 31G, 33Y]mimylin (peptide)
peptide: {C20 diacid-γGlu}-ASELSTAALGRLSAELHELATYPRTETGSGSY-NH2
SMILES: CC(C)C[C@H](NC(=O)[C@H](C)NC(=O)[C@H](C)NC(=O)[C@@H](NC(=O)[C@H](CO)NC(=O)[C@H](CC(C)C)NC(=O)[C@H](CCC(=O)O)NC(=O)[C@H](CO)NC(=O)[C@H](C)NC(=O)CC[C@H](NC(=O)CCCCCCCCCCCCCCCCCCC(=O)O)C(=O)O)[C@@H](C)O)C(=O)NCC(=O)N[C@@H](CCCNC(=N)N)C(=O)N[C@@H](CC(C)C)C(=O)N[C@@H](CO)C(=O)N[C@@H](C)C(=O)N[C@@H](CCC(=O)O)C(=O)N[C@@H](CC(C)C)C(=O)N[C@@H](Cc1c[nH]cn1)C(=O)N[C@@H](CCC(=O)O)C(=O)N[C@@H](CC(C)C)C(=O)N[C@@H](C)C(=O)N[C@H](C(=O)N[C@@H](Cc1ccc(O)cc1)C(=O)N1CCC[C@H]1C(=O)N[C@@H](CCCNC(=N)N)C(=O)N[C@H](C(=O)N[C@@H](CCC(=O)O)C(=O)N[C@H](C(=O)NCC(=O)N[C@@H](CO)C(=O)NCC(=O)N[C@@H](CO)C(=O)N[C@@H](Cc1ccc(O)cc1)C(N)=O)[C@@H](C)O)[C@@H](C)O)[C@@H](C)O
B2: [N-terminal(C20 diacid-gGlu), des1, 21S, 23Y, 30S, 31G]mimylin (peptide)
peptide: {C20 diacid-γGlu}-ASELSTAALGRLSAELHELSTYPRTETGSGSP-NH2
SMILES: CC(C)C[C@H](NC(=O)[C@H](C)NC(=O)[C@H](C)NC(=O)[C@@H](NC(=O)[C@H](CO)NC(=O)[C@H](CC(C)C)NC(=O)[C@H](CCC(=O)O)NC(=O)[C@H](CO)NC(=O)[C@H](C)NC(=O)CC[C@H](NC(=O)CCCCCCCCCCCCCCCCCCC(=O)O)C(=O)O)[C@@H](C)O)C(=O)NCC(=O)N[C@@H](CCCNC(=N)N)C(=O)N[C@@H](CC(C)C)C(=O)N[C@@H](CO)C(=O)N[C@@H](C)C(=O)N[C@@H](CCC(=O)O)C(=O)N[C@@H](CC(C)C)C(=O)N[C@@H](Cc1c[nH]cn1)C(=O)N[C@@H](CCC(=O)O)C(=O)N[C@@H](CC(C)C)C(=O)N[C@@H](CO)C(=O)N[C@H](C(=O)N[C@@H](Cc1ccc(O)cc1)C(=O)N1CCC[C@H]1C(=O)N[C@@H](CCCNC(=N)N)C(=O)N[C@H](C(=O)N[C@@H](CCC(=O)O)C(=O)N[C@H](C(=O)NCC(=O)N[C@@H](CO)C(=O)NCC(=O)N[C@@H](CO)C(=O)N1CCC[C@H]1C(N)=O)[C@@H](C)O)[C@@H](C)O)[C@@H](C)O
B3: [N-terminal(C20 diacid-gGlu), -1E, 1A, 23Y, 30S, 31G]mimylin (peptide)
peptide: {C20 diacid-γGlu}-EAASELSTAALGRLSAELHELATYPRTETGSGSP-NH2
SMILES: CC(C)C[C@H](NC(=O)[C@H](C)NC(=O)[C@H](C)NC(=O)[C@@H](NC(=O)[C@H](CO)NC(=O)[C@H](CC(C)C)NC(=O)[C@H](CCC(=O)O)NC(=O)[C@H](CO)NC(=O)[C@H](C)NC(=O)[C@H](C)NC(=O)[C@H](CCC(=O)O)NC(=O)CC[C@H](NC(=O)CCCCCCCCCCCCCCCCCCC(=O)O)C(=O)O)[C@@H](C)O)C(=O)NCC(=O)N[C@@H](CCCNC(=N)N)C(=O)N[C@@H](CC(C)C)C(=O)N[C@@H](CO)C(=O)N[C@@H](C)C(=O)N[C@@H](CCC(=O)O)C(=O)N[C@@H](CC(C)C)C(=O)N[C@@H](Cc1c[nH]cn1)C(=O)N[C@@H](CCC(=O)O)C(=O)N[C@@H](CC(C)C)C(=O)N[C@@H](C)C(=O)N[C@H](C(=O)N[C@@H](Cc1ccc(O)cc1)C(=O)N1CCC[C@H]1C(=O)N[C@@H](CCCNC(=N)N)C(=O)N[C@H](C(=O)N[C@@H](CCC(=O)O)C(=O)N[C@H](C(=O)NCC(=O)N[C@@H](CO)C(=O)NCC(=O)N[C@@H](CO)C(=O)N1CCC[C@H]1C(N)=O)[C@@H](C)O)[C@@H](C)O)[C@@H](C)O
B4: [N-terminal(C20 diacid-gGlu), des1, 23Y, 30S, 31G, 32A]mimylin (peptide)
peptide: {C20 diacid-γGlu}-ASELSTAALGRLSAELHELATYPRTETGSGAP-NH2
SMILES: CC(C)C[C@H](NC(=O)[C@H](C)NC(=O)[C@H](C)NC(=O)[C@@H](NC(=O)[C@H](CO)NC(=O)[C@H](CC(C)C)NC(=O)[C@H](CCC(=O)O)NC(=O)[C@H](CO)NC(=O)[C@H](C)NC(=O)CC[C@H](NC(=O)CCCCCCCCCCCCCCCCCCC(=O)O)C(=O)O)[C@@H](C)O)C(=O)NCC(=O)N[C@@H](CCCNC(=N)N)C(=O)N[C@@H](CC(C)C)C(=O)N[C@@H](CO)C(=O)N[C@@H](C)C(=O)N[C@@H](CCC(=O)O)C(=O)N[C@@H](CC(C)C)C(=O)N[C@@H](Cc1c[nH]cn1)C(=O)N[C@@H](CCC(=O)O)C(=O)N[C@@H](CC(C)C)C(=O)N[C@@H](C)C(=O)N[C@H](C(=O)N[C@@H](Cc1ccc(O)cc1)C(=O)N1CCC[C@H]1C(=O)N[C@@H](CCCNC(=N)N)C(=O)N[C@H](C(=O)N[C@@H](CCC(=O)O)C(=O)N[C@H](C(=O)NCC(=O)N[C@@H](CO)C(=O)NCC(=O)N[C@@H](C)C(=O)N1CCC[C@H]1C(N)=O)[C@@H](C)O)[C@@H](C)O)[C@@H](C)O
B5: [N-terminal(C20 diacid-gGlu), des1, 12H, 25H, 30S, 31G]mimylin (peptide)
peptide: {C20 diacid-γGlu}-ASELSTAALGHLSAELHELATLPHTETGSGSP-NH2
SMILES: CC(C)C[C@H](NC(=O)[C@H](C)NC(=O)[C@H](C)NC(=O)[C@@H](NC(=O)[C@H](CO)NC(=O)[C@H](CC(C)C)NC(=O)[C@H](CCC(=O)O)NC(=O)[C@H](CO)NC(=O)[C@H](C)NC(=O)CC[C@H](NC(=O)CCCCCCCCCCCCCCCCCCC(=O)O)C(=O)O)[C@@H](C)O)C(=O)NCC(=O)N[C@@H](Cc1c[nH]cn1)C(=O)N[C@@H](CC(C)C)C(=O)N[C@@H](CO)C(=O)N[C@@H](C)C(=O)N[C@@H](CCC(=O)O)C(=O)N[C@@H](CC(C)C)C(=O)N[C@@H](Cc1c[nH]cn1)C(=O)N[C@@H](CCC(=O)O)C(=O)N[C@@H](CC(C)C)C(=O)N[C@@H](C)C(=O)N[C@H](C(=O)N[C@@H](CC(C)C)C(=O)N1CCC[C@H]1C(=O)N[C@@H](Cc1c[nH]cn1)C(=O)N[C@H](C(=O)N[C@@H](CCC(=O)O)C(=O)N[C@H](C(=O)NCC(=O)N[C@@H](CO)C(=O)NCC(=O)N[C@@H](CO)C(=O)N1CCC[C@H]1C(N)=O)[C@@H](C)O)[C@@H](C)O)[C@@H](C)O
B6: [N-terminal(C18 diacid-gGlu), des1, 4Q, 30S, 31G]mimylin (peptide)
peptide: {C18 diacid-γGlu}-ASQLSTAALGRLSAELHELATLPRTETGSGSP-NH2
SMILES: CC(C)C[C@H](NC(=O)[C@H](C)NC(=O)[C@H](C)NC(=O)[C@@H](NC(=O)[C@H](CO)NC(=O)[C@H](CC(C)C)NC(=O)[C@H](CCC(N)=O)NC(=O)[C@H](CO)NC(=O)[C@H](C)NC(=O)CC[C@H](NC(=O)CCCCCCCCCCCCCCCCC(=O)O)C(=O)O)[C@@H](C)O)C(=O)NCC(=O)N[C@@H](CCCNC(=N)N)C(=O)N[C@@H](CC(C)C)C(=O)N[C@@H](CO)C(=O)N[C@@H](C)C(=O)N[C@@H](CCC(=O)O)C(=O)N[C@@H](CC(C)C)C(=O)N[C@@H](Cc1c[nH]cn1)C(=O)N[C@@H](CCC(=O)O)C(=O)N[C@@H](CC(C)C)C(=O)N[C@@H](C)C(=O)N[C@H](C(=O)N[C@@H](CC(C)C)C(=O)N1CCC[C@H]1C(=O)N[C@@H](CCCNC(=N)N)C(=O)N[C@H](C(=O)N[C@@H](CCC(=O)O)C(=O)N[C@H](C(=O)NCC(=O)N[C@@H](CO)C(=O)NCC(=O)N[C@@H](CO)C(=O)N1CCC[C@H]1C(N)=O)[C@@H](C)O)[C@@H](C)O)[C@@H](C)O
B7: [N-terminal(C20 diacid-gGlu), des1, 4G, 23Y, 30S, 31G]mimylin (peptide)
peptide: {C20 diacid-γGlu}-ASGLSTAALGRLSAELHELATYPRTETGSGSP-NH2
B8: [N-terminal(C18 diacid), 5I]mimylin (peptide)
peptide: {C18 diacid}-EASEISTAALGRLSAELHELATLPRTETGPESP-NH2
SMILES: CC[C@H](C)[C@H](NC(=O)[C@H](CCC(=O)O)NC(=O)[C@H](CO)NC(=O)[C@H](C)NC(=O)[C@H](CCC(=O)O)NC(=O)CCCCCCCCCCCCCCCCC(=O)O)C(=O)N[C@@H](CO)C(=O)N[C@H](C(=O)N[C@@H](C)C(=O)N[C@@H](C)C(=O)N[C@@H](CC(C)C)C(=O)NCC(=O)N[C@@H](CCCNC(=N)N)C(=O)N[C@@H](CC(C)C)C(=O)N[C@@H](CO)C(=O)N[C@@H](C)C(=O)N[C@@H](CCC(=O)O)C(=O)N[C@@H](CC(C)C)C(=O)N[C@@H](Cc1c[nH]cn1)C(=O)N[C@@H](CCC(=O)O)C(=O)N[C@@H](CC(C)C)C(=O)N[C@@H](C)C(=O)N[C@H](C(=O)N[C@@H](CC(C)C)C(=O)N1CCC[C@H]1C(=O)N[C@@H](CCCNC(=N)N)C(=O)N[C@H](C(=O)N[C@@H](CCC(=O)O)C(=O)N[C@H](C(=O)NCC(=O)N1CCC[C@H]1C(=O)N[C@@H](CCC(=O)O)C(=O)N[C@@H](CO)C(=O)N1CCC[C@H]1C(N)=O)[C@@H](C)O)[C@@H](C)O)[C@@H](C)O)[C@@H](C)O

How the values were obtained:
[1] = target: T1, human calcitonin receptor; assay: cell-based or functional assay
[2] = target: T2, human amylin 3(a) receptor (human …); assay: cell-based or functional assay

Binder | hCTR funct. EC50 (pM) [1] [pM] | hAmylin-R funct. EC50 (pM) [2] [pM]
B1 | 29 | 32
B2 | 27 | 33
B3 | 15 | 17
B4 | 41 | 37
B5 | 12 | 26
B6 | 11 | 9
B7 | 42 | 38
B8 | 7 | 7
